These results are taken from PMC2629542.

The target of the experiment is DraE R86G (E. coli). Put plainly: SPR.

On to N-domain of CEA (domain or fragment), for which the fold decrease in affinity against DraE is over 7 fold.
